From patent publication US11912782B2, “BCMA monoclonal antibody-drug conjugate” (MedImmune, LLC, priority 2017, dated 2024)
Substitutions are numbered along the chain they refer to.

B1: P10: lead optimized clone of 15B2GL; VH SEQ ID NO: 19, VL SEQ ID NO: 20 (antibody, V domains shown)
VH: EVQLVESGGGLVKPGGSLRLSCAASGFTFRSYSMNWVRQAPGKGLEWVSSISGQSNYIYYADSVKGRFTISRDNAKNSLYLQMNSLRAEDTAVYYCARGGNYYVEYFQYWGQGTLVTVSS
VL: EIVLTQSPGTLSLSPGERATLSCRASQYISSNYLAWYQQKPGQAPRLLIYGASNRATGIPDRFSGSGSGTDFTLTISRLEPEDFAVYYCQQYTDSPITFGQGTKLEIK
B2: N22: lead optimized clone of 15B2GL; VH SEQ ID NO: 17, VL SEQ ID NO: 18 (antibody, V domains shown)
VH: B1 VH with R30S, Q54S, Y103F
VL: B1 VL with T93S, D94S
B3: I09: lead optimized clone of 15B2GL; VH SEQ ID NO: 11, VL SEQ ID NO: 12 (antibody, V domains shown)
VH: B1 VH with R30S, Q54S, Y103F, Y109Q
VL: B1 VL with T93S, D94S, S95D
B4: L15: lead optimized clone of 15B2GL; VH SEQ ID NO: 13, VL SEQ ID NO: 14 (antibody, V domains shown)
VH: B1 VH with R30S, Y103F
VL: B1 VL with Y33N, T93A
B5: M02: lead optimized clone of 15B2GL; VH SEQ ID NO: 15, VL SEQ ID NO: 16 (antibody, V domains shown)
VH: B1 VH with R30S
VL: B1 VL with Y33N, T93S, D94S, S95D

Target: T1, monomeric human sBCMA (Homo sapiens, UniProt Q02223)
T1 construct: is comprised of the entire extracellular domain of the molecule; purchased GenScript
T1 sequence (Q02223 1-54 limits assumed): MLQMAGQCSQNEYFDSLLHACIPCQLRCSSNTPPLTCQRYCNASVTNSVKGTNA
Assay: Kinetics/affinity measurement by SPR (BioRad ProteOn XPR36), antibody captured by anti-Fc, sBCMA flowed over
Type: binding
Details: sBCMA 100-6.25 nM
Method: The binding of 15B2GL monoclonal antibody and optimized clones I09, L15, P10, N22, and M02 (described in Example 1) was assessed using monomeric human sBCMA (GenScript, Piscataway, N.J.) using a ProteOn™ XPR36 instrument (Bio-Rad, Hercules, Calif.). The binding of J6M0 also was assessed for comparison. Standard amine coupling was used to immobilize 25 μg/ml anti-Fc polyclonal antibody (Jackson ImmunoResearch, West Grove, Pa.) prepared in 10 mM sodium acetate buffer (pH 4.5) to the surface of a ProteOn™ GLC biosensor chip (Bio-Rad, Hercules, Calif.) pre-activated with 20 mM EDAC (1-ethyl-3-(3-dimethylaminopropyl)carbodiimide hydrochloride) and 5 mM Sulfo-NHS (N-hydroxysulfosuccinimide) at a density of ˜200-600 resonance units (RU). 15B2GL, I09, L15, P10, N22, M02, and J6M0 were subsequently injected at a concentration of 1 μg/ml for capture by the immobilized anti-Fc polyclonal antibody. The sensorgram was recorded by flowing two-fold serial dilutions of sBCMA prepared in PBS (pH 7.4) with 0.005% (v/v) Tween®-20, ranging from 100-6.25 nM, over the captured surface for 150 seconds at 75 μL/minute with dissociation time of 600 seconds. ProteOn™ data analysis software was used to analyze the data.

Compared with B1, B2 is higher in Koff: 3.73E−03 for the first, 8.73E−03 for the second.

First: B3
Second: B4
The Koff of the first is higher: 5.99E−03 for the first, 3.86E−03 for the second.

With B5 the Koff was 4.97E−03.

Going from B1 to B2, the Kon falls from 7.01E+05 to 5.36E+05.

Compared with B3, B4 is higher in Kon: 6.09E+05 for the first, 8.54E+05 for the second.

B5 was tested, and the Kon was 4.99E+05.

Same assay, conditions: unit inferred

First: B1
Second: B2
The Kd of the first is 3.1-fold lower: 5.32 nM for the first, 16.3 nM for the second.

Going from B3 to B4, the Kd falls from 9.82 nM to 4.51 nM (2.2-fold).

B5 showed a Kd of 9.95 nM.
